Source: the supplement of paper PMC12764529
± gives the half width of the 95% confidence interval.

Assays:
[1] = folding stability dG unfold from trypsin proteolysis; higher = more stable
Procedure, shortened: (§1)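 Only designs with AlphaFold2 dimer inter-PAE above 15 were retained; each was a mini-protein under 80 residues with no cysteine, in a PA-tagged cDNA display construct. After digestion with trypsin and chymotrypsin and sequencing, K50 was inferred by Bayesian fitting of counts, and unfolding free energy was derived per protease or combined against a sequence-predicted unfolded-state K50 and a shared folded-state K50.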

[2] = folding stability dG unfold from chymotrypsin proteolysis; higher = more stable
Procedure, shortened: as §1

[3] = folding stability dG unfold (combined trypsin and chymotrypsin); higher = more stable
Procedure, shortened: as §1

Sequence | folding stability dG unfold [1] [kcal/mol] | folding stability dG unfold [2] [kcal/mol] | folding stability dG unfold [3] [kcal/mol]
SAGGSAGGGMLNGLLEKLLLAEPVEVDPVTTTVTPSPNGTVTTTPVYSTADDSVLTETQTTPVASAGGSAGG [r6_326_JUSTAS] | 0.341 ± 0.057 | -0.574 ± 0.19 | -0.0634 ± 0.14
SAGGSAGGGMNATPKKIKVTITITDPSGNKTTVTREFDSEEEAEKFVKELLPPNRSYTVTYEPESAGGSAGG [r6_290_JUSTAS] | 2.94 ± 0.074 | 2.075 ± 0.017 | 2.56 ± 0.068
SAGGSAGGGMSFTLTSEKKVPGVNVTLTTVTGPGVTITYDPATGKATVEFPDSVTTVPLSSITTSAGGSAGG [r6_512_JUSTAS] | 0.573 ± 0.024 | 0.359 ± 0.16 | 0.597 ± 0.099
SAGGSAGGGMSLEAPIGEIEKPEGTDTVVITVYENGKWHTIPLPNFKNIKIEKDPNSDVVTILLSAGGSAGG [r6_806_JUSTAS] | 1.29 ± 0.1 | 1.71 ± 0.13 | 1.52 ± 0.18
SAGGSAGGGMTPEEARALAEAAGYEDVEVTVLSRDPENNVTVVEVTARAPGGGGAASVGTYTAPSAGGSAGG [r6_699_JUSTAS] | -0.77 ± 0.21 | -0.245 ± 0.27 | -0.396 ± 0.18
SAGGSAGGGNWERVEFTFTKRVYDPKNGKPMKDVMVEIDVYRDPNEGALEIEIEMPPGFDYIMISAGGSAGG [r6_206_TrROS] | 2.79 ± 0.28 | 4.23 ± 0.23 | 3.93 ± 0.29
SAGGSAGGGPKVTVEVTESKVYELEDGSYVAVNTYTVTFEAEGKTVKVTFYRTFPKGFAGGPFSSAGGSAGG [r6_799_TrMRF] | 2.28 ± 0.064 | 2.57 ± 0.14 | 2.42 ± 0.17
SAGGSAGGGRAEILVEPVEPEPRARVVIRLEGSGRLVVFPVEEPLEPEHVEEAVEAAIKALEENSAGGSAGG [r6_330_TrMRF] | -0.26 ± 0.17 | 0.647 ± 0.013 | 0.393 ± 0.065
SAGGSAGGGSLSKPKKYELVATFTFPGTVEEAKEFLEKLLPEDWKVEIEETPDFLKIKLYKRLDSAGGSAGG [r6_952_TrMRF] | 4.07 ± 0.13 | 4.07 ± 0.049 | 4.06 ± 0.063
SAGGSAGGGSSITPVEVTPLPEDKYRVLIRITTYLPGGKPRTEEIEVEMPPDETAEEAAARVLSSAGGSAGG [r6_329_JUSTAS] | 0.341 ± 0.044 | 0.29 ± 0.11 | 0.367 ± 0.075
SAGGSAGGGYAEFETTAVLPDGRVYRAKIVLSPDPDIVKIRLFSPEGEEEIELHPDDPLLLTPGSAGGSAGG [r6_926_TrMRF] | 1.46 ± 0.034 | 1.66 ± 0.062 | 1.62 ± 0.051
SAGGSAGGGYELRVTVYDPRTGKPVAEATFTATSPEEAEARFEEIRRALPPEYLVFAEIRPVPESAGGSAGG [r6_688_TrMRF] | 4.94 ± 0.38 | 5.19 ± 0.13 | 5.25 ± 0.11
SAGGSAGGIEAVREALEDMPPGEEKEITIPVPGDPNYYIKFTIRTKGNKIKIPIEIEPMPPGQMSAGGSAGG [r6_393_TrROS] | 0.632 ± 0.16 | 1.63 ± 0.39 | 1.08 ± 0.38
SAGGSAGGIHPDVKVKLVKIVSVEEGEGEVVAKALVELPNGERVVVSSEVLKELLEENPDVDVSSAGGSAGG [r6_77_TrMRF] | 0.301 ± 0.056 | 1.02 ± 0.067 | 0.819 ± 0.18
SAGGSAGGIKAPDGQEYHIILFPITIPMEQKVERPMPDGDPRPETRTVSIKIPIWFAIPPGQKISAGGSAGG [r6_526_TrROS] | 1.14 ± 0.029 | 1.5 ± 0.12 | 1.29 ± 0.13
SAGGSAGGIKEILKEARENPENAESVTIRIPMEVPVTRYDPDNGEPETHPHPVPGEITIPPDDLSAGGSAGG [r6_560_TrROS] | 0.435 ± 0.019 | 1.16 ± 0.043 | 0.889 ± 0.051
SAGGSAGGIKYRVMVHNPESGRWHRIDDIEIDPPDGRIKIRFPGNGKEITIPPGYPIMISPDMLSAGGSAGG [r6_885_TrROS] | 0.662 ± 0.1 | 0.793 ± 0.17 | 0.795 ± 0.071
SAGGSAGGIMIDSPEQMEEFAKDFFQNGYHEVPIHVMDPNGNWQTFPFTIEVPPPKPEPDPGKKSAGGSAGG [r6_258_TrROS] | -0.648 ± 0.12 | 0.411 ± 0.25 | 0.111 ± 0.29
SAGGSAGGITIRDPDNGIEVKILKITPNHMIIQAEFPNGRNYMIEMPPDSLKPGDEIPMTVHPVSAGGSAGG [r6_152_TrROS] | -0.008 ± 0.17 | -0.14 ± 0.41 | -0.148 ± 0.3
SAGGSAGGKEFEIEKVEITVENGTITIRMIVRDKETNEYYEVEKTITFDPETKELHVEIKVKKVSAGGSAGG [r6_604_TrROS_Hall] | 4.19 ± 0.13 | 3.23 ± 0.1 | 3.91 ± 0.16
SAGGSAGGKEFKIVKVEIEEREDGRLKIHITVEPGATPEEVKKALEELGFEVEEVEVVEVEEEESAGGSAGG [r6_543_TrROS_Hall] | 1.93 ± 0.086 | 2.368 ± 0.023 | 2.24 ± 0.092
